# From publication PMC3517540, “Versatile Membrane Deformation Potential of Activated Pacsin” (PLoS ONE, 2012)
# B1: GST-PRD^trunc1 (mouse dynamin-1 PRD aa747-810 fused to GST) (domain or fragment, UniProt P39053 747-810, looked up)
# chain: TTTVSTPMPPPVDDSWLQVQSVPAGRRSPTSSPTPQRRAPAVPPARPGSRGPAPGPPPAGSALG
# notes: dynamin-1 PRD, mouse, aa747-810; also called tr1; source: purified as GST fusion protein (GSTrap, Superdex 200 SEC)
# B2: Mouse dynamin-1 proline-rich domain (residues 747-842) fused to GST (domain or fragment, UniProt P39053 747-842, looked up)
# chain: TTTVSTPMPPPVDDSWLQVQSVPAGRRSPTSSPTPQRRAPAVPPARPGSRGPAPGPPPAGSALGGAPPVPSRPGASPDPFGPPPQVPSRPNRAPPG
# notes: dynamin-1 proline-rich domain (PRD), mouse, residues 747-842; 100% identical to the human dynamin-1 PRD; Construct from the De Camilli laboratory; also called GST-PRD; PRD^wt; source: expression vector pGEX-6P-1, purified (GSTrap, Superdex 200 SEC)
# Assays:
# [1] = target: T1, Human full-length pacsin-1 (human, UniProt Q9BY11 1-444); test: pull-down; GST-PRD baits on GST SpinTrap resin, purified pacsin-1 prey 2 h at 4°C; 25 mM Tris-Cl pH 7.5, 100 mM NaCl; eluted with 10 mM glutathione; SDS-PAGE and Coomassie staining; conditions: both partners purified
# T1 construct: pacsin-1 (syndapin-1), human, full length; The His6-SUMO moiety was cleavable with Ulp-1; also called pacsin isoform 1; syndapin; source: modified pET28a expression plasmid, purified as described previously [27], [35]
# [2] = target: T1, Human full-length pacsin-1; test: SEC; pacsin-1 (40 µM) and GST-PRD (80 µM) incubated for 15 min, then size-exclusion chromatography; fractions analysed by SDS-PAGE and Coomassie staining; conditions: both partners purified
# T1 sequence (Q9BY11 whole entry, canonical isoform): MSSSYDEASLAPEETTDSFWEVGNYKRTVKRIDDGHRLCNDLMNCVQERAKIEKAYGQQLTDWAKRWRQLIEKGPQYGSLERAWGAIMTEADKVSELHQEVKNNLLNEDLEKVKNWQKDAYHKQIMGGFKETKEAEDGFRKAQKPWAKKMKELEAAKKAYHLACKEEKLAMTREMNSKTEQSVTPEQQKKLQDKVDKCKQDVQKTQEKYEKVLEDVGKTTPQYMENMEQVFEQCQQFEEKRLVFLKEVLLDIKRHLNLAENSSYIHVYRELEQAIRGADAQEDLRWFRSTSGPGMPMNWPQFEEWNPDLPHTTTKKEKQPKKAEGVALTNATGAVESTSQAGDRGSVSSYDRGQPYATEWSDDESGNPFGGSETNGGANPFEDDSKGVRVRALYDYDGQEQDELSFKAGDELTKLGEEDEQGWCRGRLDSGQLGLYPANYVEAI
Binder,binding result [1],binding result [2]
B1,binds,–
B2,–,binds
